Laboratory results reported in patent US20120058906A1 (published 2012).
Blank lines part the entries; values can stand above or below the binder they belong to.

Tests used:
[1] = biological target: T1, rHuman Notch-1/Fc Chimera, CF (R&D Systems Cat#3647-TK) (human, UniProt P46531 19-526); assay: MSD ECL multi-spot, Fab 0.21 uM, blank 529; row label 3 may be swapped with 4;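 also: blank spot per well as comparator with Hit at signal to blank ratio of 4 or more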
T1 construct: Bought Fc chimera; Fc part of the bought chimera not given

[2] = biological target: T2, rHuman CD44/Fc Chimera, CF (R&D Systems Cat#3660-CD) (human, UniProt P16070 21-220); assay: as above
T2 construct: Bought Fc chimera; Fc part of the bought chimera not given

[3] = biological target: T3, rHuman IGF-1 sR (insulin-like growth factor-1 soluble receptor), CF (R&D Systems Cat#391-GR) (human, UniProt P08069 31-932); assay: as above
T3 construct: Bought soluble receptor; also called IGF-R1

[4] = biological target: T4, rHuman P-Cadherin/Fc Chimera, CF (R&D Systems Cat#861-PC) (human, UniProt P22223 108-654); assay: as above
T4 construct: Bought Fc chimera; Fc part of the bought chimera not given

[5] = biological target: T5, rHuman Erythropoietin R/Fc Chimera, CF (R&D Systems Cat#963-ER) (human, UniProt P19235 25-250); assay: as above
T5 construct: Bought Fc chimera; also called EPO R/Fc; EPOR; Fc part of the bought chimera not given
T5 sequence: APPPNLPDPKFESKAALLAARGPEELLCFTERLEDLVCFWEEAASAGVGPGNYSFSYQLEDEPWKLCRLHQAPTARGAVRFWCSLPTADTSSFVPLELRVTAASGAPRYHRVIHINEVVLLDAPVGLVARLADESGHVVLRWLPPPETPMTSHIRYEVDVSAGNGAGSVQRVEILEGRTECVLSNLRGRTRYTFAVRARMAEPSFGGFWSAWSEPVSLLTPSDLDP

[6] = biological target: T6, Recombinant Human DLL4 (R&D Systems Cat#1506-D4/CF) (human, UniProt Q9NR61 27-524); assay: as above
T6 construct: Bought recombinant protein; also called rHuman DLL4; delta-like protein 4

[7] = biological target: T7, rHuman ErbB2/Fc Chimera, CF (R&D Systems Cat#1129-ER) (human, UniProt P04626 23-652); assay: as above
T7 construct: Bought Fc chimera; also called HER2/neu; Fc part of the bought chimera not given

[8] = biological target: T8, rHuman EGF R/Fc Chimera, CF (R&D Systems Cat#344-ER) (human, UniProt P00533 25-645); assay: as above
T8 construct: Bought Fc chimera; Fc part of the bought chimera not given

[9] = biological target: T9, rHuman HGF R/c-MET/Fc Chimera, CF (R&D Systems Cat#358-MT/CF) (human, UniProt P08581 25-932); assay: as above
T9 construct: Bought Fc chimera; also called HGF R/Fc; Fc part of the bought chimera not given

[10] = biological target: T10, rHuman IGF-1 sR, (IGF-1 sR), CF (R&D Systems Cat#391-GR) (human, UniProt P08069 31-932); assay: MSD ECL multi-spot plate; Fab 1570 nM; blank spot 866
T10 construct: also called insulin-like growth factor-1 soluble receptor; IGF-R1

[11] = biological target: T11, rHuman P-Cadherin/Fc Chimera, CF (R&D Systems Cat#861-PC) (human, UniProt P22223 108-654); assay: as above
T11 construct: Fc part of the bought chimera not given

[12] = biological target: T12, rHuman Erythropoietin R/Fc Chimera, CF (R&D Systems Cat#963-ER) (human, UniProt P19235 25-250); assay: as above
T12 construct: also called EPO R/Fc; Epo R; Fc part of the bought chimera not given
T12 sequence: T5 sequence

[13] = biological target: T13, rHuman ErbB2/Fc Chimera, CF (R&D Systems Cat#1129-ER) (human, UniProt P04626 23-652); assay: as above
T13 construct: also called HER2/neu; human epidermal growth factor 2 receptor; Fc part of the bought chimera not given

[14] = biological target: T14, rHuman HGF R/c-MET/Fc Chimera, CF (R&D Systems Cat#358-MT/CF) (human, UniProt P08581 25-932); assay: as above
T14 construct: also called HGF R/Fc; hepatocyte growth factor receptor; Fc part of the bought chimera not given

[15] = biological target: T15, rHuman CD44/Fc Chimera, CF (R&D Systems Cat#3660-CD) (human, UniProt P16070 21-220); assay: as above
T15 construct: Fc part of the bought chimera not given

[16] = biological target: T10, rHuman IGF-1 sR, (IGF-1 sR), CF (R&D …); assay: MSD ECL multi-spot plate; Fab 24.5 nM; blank spot 149
[17] = biological target: T11, rHuman P-Cadherin/Fc Chimera, CF (R&D …); assay: as above
[18] = biological target: T12, rHuman Erythropoietin R/Fc Chimera, CF …; assay: as above
[19] = biological target: T13, rHuman ErbB2/Fc Chimera, CF (R&D …); assay: as above
[20] = biological target: T14, rHuman HGF R/c-MET/Fc Chimera, CF (R&D …); assay: as above
[21] = biological target: T15, rHuman CD44/Fc Chimera, CF (R&D Systems …); assay: as above
[22] = biological target: T10, rHuman IGF-1 sR, (IGF-1 sR), CF (R&D …); assay: MSD ECL multi-spot plate; Fab 98.1 nM; blank spot 210
[23] = biological target: T11, rHuman P-Cadherin/Fc Chimera, CF (R&D …); assay: as above
[24] = biological target: T12, rHuman Erythropoietin R/Fc Chimera, CF …; assay: as above
[25] = biological target: T13, rHuman ErbB2/Fc Chimera, CF (R&D …); assay: as above
[26] = biological target: T14, rHuman HGF R/c-MET/Fc Chimera, CF (R&D …); assay: as above
[27] = biological target: T15, rHuman CD44/Fc Chimera, CF (R&D Systems …); assay: as above
[28] = biological target: T10, rHuman IGF-1 sR, (IGF-1 sR), CF (R&D …); assay: MSD ECL multi-spot plate; Fab 392.5 nM; blank spot 338
[29] = biological target: T11, rHuman P-Cadherin/Fc Chimera, CF (R&D …); assay: as above
[30] = biological target: T12, rHuman Erythropoietin R/Fc Chimera, CF …; assay: as above
[31] = biological target: T13, rHuman ErbB2/Fc Chimera, CF (R&D …); assay: as above
[32] = biological target: T14, rHuman HGF R/c-MET/Fc Chimera, CF (R&D …); assay: as above
[33] = biological target: T15, rHuman CD44/Fc Chimera, CF (R&D Systems …); assay: as above

ECL signal [1]: 949
ECL signal [2]: 837
ECL signal [3]: 763
ECL signal [4]: 890
ECL signal [5]: 1120
ECL signal [6]: 1070
ECL signal [7]: 9230
ECL signal [8]: 815
ECL signal [9]: 744
B1: Fab VH6-1_IGHD3-3*01_IGHJ4*01 & V4-3_IGLJ4*01 (Fab, V domains shown)
VH: QVQLQQSGPGLVKPSQTLSLTCAISGDSVSSNSAAWNWIRQSPSRGLEWLGRTYYRSKWYNDYAVSVKSRITINPDTSKNQFSLQLNSVTPEDTAVYYCAREYYDFWSGYYTDYFDYWGQGTLVTVSS
VL: QPVLTQPTSLSASPGASARLTCTLRSGINLGSYRIFWYQQKPESPPRYLLSYYSDSSKHQGSGVPSRFSGSKDASSNAGILVISGLQSEDEADYYCMIWHSSASFVFGGGTQLIIL
notes: Expressed in E. coli as Fab: heavy chain with CH1 plus Flag and His tags from Plasmid A, lambda light chain constant region from Plasmid E; also called Fab No. 3

ECL signal [10]: 1430 ECL signal
ECL signal [11]: 1790 ECL signal
ECL signal [12]: 6120 ECL signal
ECL signal [13]: 1260 ECL signal
ECL signal [14]: 1640 ECL signal
ECL signal [15]: 1380 ECL signal
ECL signal [16]: 239 ECL signal
ECL signal [17]: 257 ECL signal
ECL signal [18]: 4530 ECL signal
ECL signal [19]: 241 ECL signal
ECL signal [20]: 211 ECL signal
ECL signal [21]: 267 ECL signal
ECL signal [22]: 309 ECL signal
ECL signal [23]: 347 ECL signal
ECL signal [24]: 5630 ECL signal
ECL signal [25]: 247 ECL signal
ECL signal [26]: 335 ECL signal
ECL signal [27]: 265 ECL signal
ECL signal [28]: 466 ECL signal
ECL signal [29]: 459 ECL signal
ECL signal [30]: 5860 ECL signal
ECL signal [31]: 539 ECL signal
ECL signal [32]: 581 ECL signal
ECL signal [33]: 498 ECL signal
B2: Fab VH1-46_IGHD3-10*01_IGHJ4*01 & O1_IGKJ1*01 (Fab, V domains shown)
VH: QVQLVQSGAEVKKPGASVKVSCKASGYTFTSYYMHWVRQAPGQGLEWMGIINPSGGSTSYAQKFQGRVTMTRDTSTSTVYMELSSLRSEDTAVYYCAREYYYGSGSYYNDYFDYWGQGTLVTVSS
VL: DIVMTQTPLSLPVTPGEPASISCRSSQSLLDSDDGNTYLDWYLQKPGQSPQLLIYTLSYRASGVPDRFSGSGSGTDFTLKISRVEAEDVGVYYCMQRIEFPSWTFGQGTKVEIK
notes: It was expressed in E. coli as a Fab; The heavy chain carries CH1 from Plasmid A with Flag and His tags; The light chain carries the kappa constant region from Plasmid C
